Source: patent US5972599, “High affinity nucleic acid ligands of cytokines” (NeXstar Pharmaceuticals, Inc.)

Key:
IFN-gamma [1] = target: T1, IFN-gamma (Homo sapiens, UniProt P01579 P01579:24-161); assay: filter; specificity control; settings: tags: Genzyme (Cambridge MA); Upstate Biotechnology for early SELEX rounds; chain copies: 2 inferred
IL-4 = IL-4 (Homo sapiens, UniProt P05112 P05112:25-153); assay: filter; specificity control; settings: tags: R&D Systems
IL-10 = IL-10 (Homo sapiens, UniProt P22301 P22301:19-178); assay: filter; TEM buffer, 37 C; settings: tags: Bachem or R & D Systems; chain copies: 2 inferred
Description: Internally-labeled RNA transcripts were prepared by including [γ-^32P]ATP in T7 RNA polymerase transcription reactions. Full-length transcripts were purified on 8% denaturing polyacrylamide gels to ensure size homogeneity. Gel-purified RNA was diluted to a concentration of ~5 nM in TEM buffer, heated to 80° C. then chilled on ice to facilitate secondary structure formation. RNA concentrations were kept lower than 100 pM in binding reactions. Briefly, equal amounts of RNA were incubated with varying amounts of IL-10 in 50 µL of TEM buffer for 10 min at 37° C. RNA-protein mixtures were passed through pre-wet nitrocellulose filters (0.2µ) and the filters were immediately washed with 5 mL of binding buffer. Radioactivity retained on filters was determined by liquid scintillation counting. The quantities of RNA bound to filters in the absence of protein was determined and used for background correction. The percentage of input RNA retained on each filter was plotted against the corresponding log protein concentration. The nonlinear least square method to obtain the dissociation constant (K_d).

IFN-gamma [2] = target: T1, IFN-gamma; assay: filter; printed as '12 4 nM', decimal uncertain; settings: tags: Genzyme (Cambridge MA); Upstate Biotechnology for early SELEX rounds; chain copies: 2 inferred
Description: (§1) The determination of equilibrium dissociation constants (Kds) for RNA pools was made subsequent to rounds 5, 8, 12, and 17 to monitor the progress of each SELEX. The Kds of RNA pools for mouse IFN-gamma (Genzyme Inc., Cambridge Mass.) were also determined after rounds 8 and 17. Kds were determined for individual ligands after cloning and sequencing of RNA pools and truncations (described below). Nitrocellulose filter binding was used to determine Kds as follows: filter discs were placed into a vacuum manifold and wetted with 5 ml of mPBS buffer. ^32P-labeled-RNA was incubated with serial dilutions of IFN-gamma in binding buffer for 5–10 min at 37° C. to allow binding to occur. Binding mixes were centrifuged as described above to remove aggregates, aspirated through the filter discs, and then immediately washed with 5 ml mPBS buffer. The filter discs were dried and counted in a liquid scintillation counter (Beckmann Instruments, Palo Alto Calif.). Equilibrium dissociation constants were determined by least square fitting of the data points using the Kaleidagraph™ graphics program (Synergy Software, Reading Pa.). […] Biphasic binding constants were calculated according to standard procedures. Kds were determined by least square fitting of the data points using the Kaleidagraph™ graphics program.

TNF-alpha = TNF-alpha (Homo sapiens, UniProt P01375 P01375:77-233); assay: FP; no value shown, Kd above 1 uM per footnote; filter binding, DPBS; settings: tags: Genzyme or R&D Systems; chain copies: 3
IFN-gamma [3] = target: T1, IFN-gamma; assay: competition; 30 pM 125I-IFN-gamma, A549 cells; settings: tags: Genzyme (Cambridge MA); Upstate Biotechnology for early SELEX rounds; chain copies: 2 inferred
Description: The cells were washed 3 times with PBS. […] Incubations were carried out at 4° C. with shaking for 2 hrs. The cells were washed 2 times with cold PBS to remove free IFN and detached with 0.5% SDS.

IFN-gamma [4] = target: T1, IFN-gamma; assay: filter; biphasic 2.7/103 nM; settings: tags: Genzyme (Cambridge MA); Upstate Biotechnology for early SELEX rounds; chain copies: 2 inferred
Description: as §1, with “Binding mixes were centrifuged as described above to remove aggregates, aspirated through the filter discs, and then immediately washed with 5 ml mPBS buffer.” left out
The Kds of individual RNAs within each group were determined by nitrocellulose filter binding as described above. The Kds were determined using either a monophasic or biphasic least squares fit of the data.

T1 sequence (P01579 24-161, one chain of several): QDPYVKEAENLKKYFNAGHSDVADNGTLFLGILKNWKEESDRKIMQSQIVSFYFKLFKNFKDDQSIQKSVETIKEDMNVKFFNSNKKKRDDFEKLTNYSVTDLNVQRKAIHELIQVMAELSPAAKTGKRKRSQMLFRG
Chain of TNF-alpha (P01375 77-233, one chain of several): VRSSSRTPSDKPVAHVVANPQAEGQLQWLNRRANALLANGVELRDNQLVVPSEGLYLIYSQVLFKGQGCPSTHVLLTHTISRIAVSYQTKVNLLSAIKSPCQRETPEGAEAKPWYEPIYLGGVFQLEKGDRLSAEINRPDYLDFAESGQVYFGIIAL
Chain of IL-4 (P05112 25-153, one chain of several): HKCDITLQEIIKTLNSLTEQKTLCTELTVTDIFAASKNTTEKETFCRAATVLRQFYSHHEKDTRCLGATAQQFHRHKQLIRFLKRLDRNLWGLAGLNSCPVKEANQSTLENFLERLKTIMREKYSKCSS
Chain of IL-10 (P22301 19-178, one chain of several): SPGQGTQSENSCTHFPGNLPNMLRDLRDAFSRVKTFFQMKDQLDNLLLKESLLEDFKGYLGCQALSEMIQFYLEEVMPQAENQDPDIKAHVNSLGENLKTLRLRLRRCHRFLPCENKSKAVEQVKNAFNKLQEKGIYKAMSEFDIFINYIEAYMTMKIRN

B1: IL-10 ligand 43 (ssRNA)
RNA: GGGAGACAAGAAUAAACGCUCAAACAUCGUAUAACUCUAAGGGCCUGGAUAUACGAUGAAUUCGACAGGAGGCUCACAACAGGC
modifications: 2'-F all C and U
binding result (IFN-gamma [1]): no binding
binding result (IL-4): no binding
Kd (IL-10): 213 nM

B2: IFN-gamma 2'NH2-17 truncate (ssRNA)
RNA: GGGAGGACGAUGCGGUGGUAGCGCGAUAUAGCGCUGGUAGGGUUGCCGGUG
modifications: 2'-NH2 all C and U
Kd (IFN-gamma [2]): 12.4 nM

B3: TNF 12A (ssRNA)
RNA: GGGAGCUCAGAAUAAACGCUCAACUUCUUGGCCCCGUCUCAAUGUCCGUACUUCUUCGACAUGAGGCCCGGAUCCGGC
Kd (TNF-alpha): > 1000 nM

B4: IFN-gamma 2'NH2-30 (ssRNA)
RNA: GGGAGGACGAUGCGGCAGGUAAUUACAUGAAGGUGGGUUAGGUACUUUCAGGGUCAGACGACUCGCCCGA
modifications: 2'-NH2 all C and U
IC50 (IFN-gamma [3]): 10 nM
Kd (IFN-gamma [4]): 2.7 nM
